B1: Tyrosine-protein phosphatase non-receptor type 1 (Homo sapiens), P18031 (parent)
chain: MEMEKEFEQIDKSGSWAAIYQDIRHEASDFPCRVAKLPKNKNRNRYRDVSPFDHSRIKLHQEDNDYINASLIKMEEAQRSYILTQGPLPNTCGHFWEMVWEQKSRGVVMLNRVMEKGSLKCAQYWPQKEEKEMIFEDTNLKLTLISEDIKSYYTVRQLELENLTTQETREILHFHYTTWPDFGVPESPASFLNFLFKVRESGSLSPEHGPVVVHCSAGIGRSGTFCLADTCLLLMDKRKDPSSVDIKKVLLEMRKFRMGLIQTADQLRFSYLAVIEGAKFIMGDSSVQDQWKELSHEDLEPPPEHIPPPPRPPKRILEPHNGKCREFFPNHQWVKEETQEDKDCPIKEEKGSPLNAAPYGIESMSQDTEVRSRVVGGSLRGAQAASPAKGEPSLPEKDEDHALSYWKPFLVNMCVATVLTAGAYLCYRFLFNSNT

Variants of: B1
Conditions: with cadh2_chick CDH2, P10288
Sequence of cadh2_chick CDH2, P10288 (P10288 whole entry): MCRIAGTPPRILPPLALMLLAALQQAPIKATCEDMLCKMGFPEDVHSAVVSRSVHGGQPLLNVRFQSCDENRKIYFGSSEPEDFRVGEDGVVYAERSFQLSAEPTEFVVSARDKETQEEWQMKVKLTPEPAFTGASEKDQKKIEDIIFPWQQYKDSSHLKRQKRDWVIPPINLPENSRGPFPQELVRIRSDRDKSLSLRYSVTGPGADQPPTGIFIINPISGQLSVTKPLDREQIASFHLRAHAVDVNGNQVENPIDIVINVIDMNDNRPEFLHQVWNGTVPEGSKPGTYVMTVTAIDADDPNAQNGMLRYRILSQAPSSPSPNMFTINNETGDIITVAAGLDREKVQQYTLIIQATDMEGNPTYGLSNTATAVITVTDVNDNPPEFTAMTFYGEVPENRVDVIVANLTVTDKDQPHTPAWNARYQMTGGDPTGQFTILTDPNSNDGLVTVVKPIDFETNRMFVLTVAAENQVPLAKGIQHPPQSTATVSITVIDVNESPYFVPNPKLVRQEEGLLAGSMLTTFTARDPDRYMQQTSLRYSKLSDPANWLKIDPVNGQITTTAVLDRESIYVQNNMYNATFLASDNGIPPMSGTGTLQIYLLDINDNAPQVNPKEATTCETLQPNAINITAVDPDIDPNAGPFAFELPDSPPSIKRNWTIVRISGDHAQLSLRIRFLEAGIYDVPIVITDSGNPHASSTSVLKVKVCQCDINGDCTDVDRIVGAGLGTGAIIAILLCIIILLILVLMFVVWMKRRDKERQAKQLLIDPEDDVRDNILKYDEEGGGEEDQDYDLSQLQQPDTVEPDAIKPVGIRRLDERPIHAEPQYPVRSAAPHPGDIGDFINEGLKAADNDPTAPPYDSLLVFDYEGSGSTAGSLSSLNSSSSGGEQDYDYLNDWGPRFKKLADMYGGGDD

Variant	effect of a mutation on the interaction
Y66F	increasing interaction
Y66F;Y152F	decreasing interaction
C215S	increasing interaction
Y66F;Y152F;Y153F	decreasing interaction
Y152F	decreasing interaction
Y153F	increasing interaction
Y66F;Y153F	increasing interaction

Variants of: B1
Conditions: with cadh2_mouse Cdh2, P15116
Sequence of cadh2_mouse Cdh2, P15116 (P15116 whole entry): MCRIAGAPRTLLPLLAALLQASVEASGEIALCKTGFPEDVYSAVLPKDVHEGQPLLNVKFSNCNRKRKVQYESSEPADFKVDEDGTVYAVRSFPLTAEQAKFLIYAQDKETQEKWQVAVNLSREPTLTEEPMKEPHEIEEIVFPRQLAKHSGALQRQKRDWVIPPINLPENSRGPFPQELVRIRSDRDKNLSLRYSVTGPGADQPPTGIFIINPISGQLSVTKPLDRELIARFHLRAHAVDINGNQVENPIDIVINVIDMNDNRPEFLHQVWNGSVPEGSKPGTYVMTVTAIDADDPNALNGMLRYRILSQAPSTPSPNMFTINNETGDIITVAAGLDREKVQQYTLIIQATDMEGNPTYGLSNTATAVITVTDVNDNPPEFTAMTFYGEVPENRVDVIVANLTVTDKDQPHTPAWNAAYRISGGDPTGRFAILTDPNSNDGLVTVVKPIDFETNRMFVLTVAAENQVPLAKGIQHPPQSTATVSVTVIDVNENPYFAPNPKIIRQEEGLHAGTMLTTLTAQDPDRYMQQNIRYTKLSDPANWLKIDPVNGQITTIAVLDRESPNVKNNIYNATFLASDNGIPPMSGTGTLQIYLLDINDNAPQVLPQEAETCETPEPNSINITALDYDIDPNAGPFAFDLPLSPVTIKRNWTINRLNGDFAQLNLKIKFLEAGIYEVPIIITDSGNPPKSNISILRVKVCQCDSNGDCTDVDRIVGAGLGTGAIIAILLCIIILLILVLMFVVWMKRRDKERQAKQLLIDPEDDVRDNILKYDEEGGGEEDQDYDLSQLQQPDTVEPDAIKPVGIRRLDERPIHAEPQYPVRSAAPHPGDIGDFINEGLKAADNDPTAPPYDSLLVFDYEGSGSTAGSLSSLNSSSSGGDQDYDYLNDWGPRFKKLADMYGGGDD

Variant	effect of a mutation on the interaction
C215S	disrupting interaction strength

Variants of: B1
Conditions: with cadh2_mouse Cdh2, P15116
Remark: another data set of the same source

Variant	effect of a mutation on the interaction
Y152F	disrupting interaction

— IntAct's records for PubMed 11106648
